Measured values published in patent US20250312473A1 (BEONE MEDICINES I, published 2025).
Residue numbers refer to the chain shown, from its start.

T1: human 4Ig-B7H3 over-expressed on NK92mi cells (human, UniProt Q5ZPR3 29-534)
T1 construct: Full-length protein on live engineered NK92mi cells; also called NK92mi/B7H3; native B7H3
T1 sequence: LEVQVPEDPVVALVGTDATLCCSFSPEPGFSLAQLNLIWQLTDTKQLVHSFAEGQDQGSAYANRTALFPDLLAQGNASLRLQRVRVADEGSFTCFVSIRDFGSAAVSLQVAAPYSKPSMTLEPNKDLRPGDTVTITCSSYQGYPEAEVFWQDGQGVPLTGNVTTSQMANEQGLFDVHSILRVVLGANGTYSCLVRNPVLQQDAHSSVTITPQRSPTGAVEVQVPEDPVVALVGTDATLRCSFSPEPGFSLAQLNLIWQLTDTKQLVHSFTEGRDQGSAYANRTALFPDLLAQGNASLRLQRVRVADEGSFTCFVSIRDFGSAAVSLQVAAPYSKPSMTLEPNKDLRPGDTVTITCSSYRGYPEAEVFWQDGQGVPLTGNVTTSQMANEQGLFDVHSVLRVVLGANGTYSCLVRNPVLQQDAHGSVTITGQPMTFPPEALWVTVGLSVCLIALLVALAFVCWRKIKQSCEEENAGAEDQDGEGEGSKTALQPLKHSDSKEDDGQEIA

B1: Chimeric BGA-3295 (antibody, V domains shown)
VH: QIQVVQSGPELVKPGSLVKISCKASGYTFTNYDINWVKQRPGQGLEWIGWIYPGDGSAYYNEKFKGKATLTADKSSSTAYMQLSSLTSENSAVYFCARWGYGGVPFAYWGQGTLVTVSA
VL: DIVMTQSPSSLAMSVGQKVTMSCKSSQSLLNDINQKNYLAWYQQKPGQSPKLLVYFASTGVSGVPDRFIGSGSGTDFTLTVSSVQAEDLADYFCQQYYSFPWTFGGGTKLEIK
notes: Murine variable domains of BGA-3295, tested as the chimeric antibody; It was captured on an anti-human Fc surface and detected with anti-human IgG; also called Antibody BGA-3295
B2: BGA-4348 (antibody, human IgG1, V domains shown)
VH: QIQLVQSGAEVKKPGSSVKVSCKASGYTFTNYDINWVRQAPGQGLEWMGWIYPGDGSAYYNEKFKGRATITADKSTSTAYMELSSLRSEDTAVYYCARWGYGGVPFAYWGQGTLVTVSS
VL: DIVMTQSPDSLAVSLGERATINCKSSQSLLNDINQKNYLAWYQQKPGQSPKLLVYFASTGVSGVPDRFSGSGSGTDFTLTISSLQAEDVAVYYCQQYYSFPWTFGGGTKVEIK
notes: also called humanized antibody BGA-4348; 1st version of humanized antibody; not shown: Human kappa light chain constant region
B3: BGA-5063 (antibody, human IgG1, V domains shown)
VH: B2 VH with I2V, G56A
VL: B2 VL
notes: Derived from BGA-4348 by framework and CDR mutations; also called humanized antibody BGA-5063; not shown: Human kappa light chain constant region

Legend:
[1] = molecular target: T1, human 4Ig-B7H3 over-expressed on NK92mi …; assay: FACS on live NK92mi/B7H3 cells, goat anti-human IgG detection, Test1
Experimental: (§1) To evaluate the binding activity of humanized antibodies to bind native B7H3 on live cells, NK92mi cells were engineered to over-express human 4Ig-B7H3. Live NK92mi/B7H3 cells were seeded in 96-well plates and were incubated with a series of dilutions of chimeric or humanized antibodies. Goat anti-human IgG was used as second antibody to detect antibody binding to the cell surface. EC₅₀ values for dose-dependent binding to human native B7H3 were determined by fitting the dose-response data to the four-parameter logistic model with GraphPad Prism.

[2] = molecular target: T2, ECD of human 4Ig-B7H3 (Sinobiological, Cat: 11188-H08H) (human); assay: SPR, antibody captured on anti-human Fc surface, Test 1
T2 construct: Bought protein; also called human 4Ig-B7H3 ECD
Description: (§2) For affinity determination, antibodies were captured by anti-human Fc surface, and used in an affinity assay based on surface plasmon resonance (SPR) technology.

[3] = molecular target: T2, ECD of human 4Ig-B7H3 (Sinobiological, …); assay: SPR, antibody captured on anti-human Fc surface, Test 2
Description: as §2

[4] = molecular target: T1, human 4Ig-B7H3 over-expressed on NK92mi …; assay: FACS on live NK92mi/B7H3 cells, goat anti-human IgG detection, Test2
Experimental: as §1

Binder	EC50 [1]	Kd [2]	koff [2]	kon [2]	Kd [3]	koff [3]	kon [3]	EC50 [4]
B1	1100 pM	394 pM	0.000284 s⁻¹	720000 M⁻¹ s⁻¹	–	–	–	–
B2	940 pM	330 pM	1.04e-05 s⁻¹	31500 M⁻¹ s⁻¹	615 pM	0.000227 s⁻¹	369000 M⁻¹ s⁻¹	940 pM
B3	–	–	–	–	916 pM	0.000269 s⁻¹	294000 M⁻¹ s⁻¹	1150 pM
